Changes are numbered by the printed parent chain. Numbers in names are those of the source.
T1: PUF4 RNA-binding domain (Saccharomyces cerevisiae, UniProt P25339 537-888)
T1 sequence: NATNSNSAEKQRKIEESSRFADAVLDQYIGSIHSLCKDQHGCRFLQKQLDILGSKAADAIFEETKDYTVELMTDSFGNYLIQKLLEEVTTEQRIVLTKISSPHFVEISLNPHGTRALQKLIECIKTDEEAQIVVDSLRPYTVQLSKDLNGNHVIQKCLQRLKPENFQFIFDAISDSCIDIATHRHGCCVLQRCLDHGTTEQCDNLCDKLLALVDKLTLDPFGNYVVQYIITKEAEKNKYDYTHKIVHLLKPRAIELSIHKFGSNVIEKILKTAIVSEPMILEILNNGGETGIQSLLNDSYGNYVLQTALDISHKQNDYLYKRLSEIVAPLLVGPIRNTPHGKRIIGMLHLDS

B1: Id_ii_S2_P5E.4_K5.3_C5.2_[C-2A]_[T-1C]_H5.3_A5.1_F5.1_T5.2_[T11G]_[A12C] (ssRNA)
RNA: UUUGAUUAAUAUGAUAUCGUUCUUUCUACACACUUAUUAGCUUCUUUCUCGAUAUCAUAUUAAUCUUU
B2: Id_ii_S2_P5E.4_K5.3_C5.2_[C-2A]_[T-1C]_H5.3_A5.1_F5.1_T5.2_[T11A]_[A12C] (ssRNA)
RNA: B1 RNA with G40A
B3: Id_ii_S2_P5E.4_K5.3_C5.2_[C-2T]_[T-1C]_H5.3_A5.1_F5.1_T5.2_[T11C]_[A12G] (ssRNA)
RNA: B1 RNA with A28U, G40C, C41G
B4: Id_ii_S2_P5E.4_K5.3_C5.2_[C-2G]_H5.3_A5.1_F5.1_T5.2_[T11C]_[A12T] (ssRNA)
RNA: B1 RNA with A28G, C29U, G40C, C41U
B5: Id_ii_S2_P5E.4_K5.3_C5.2_[C-2T]_[T-1C]_H5.3_A5.1_F5.1_T5.2_[T11C]_[A12T] (ssRNA)
RNA: B1 RNA with A28U, G40C, C41U
B6: Id_ii_S2_P5E.4_K5.3_C5.2_[C-2A]_[T-1A]_H5.3_A5.1_F5.1_T5.2_[T11C]_[A12G] (ssRNA)
RNA: B1 RNA with C29A, G40C, C41G
B7: Id_ii_S2_P5E.4_K5.3_C5.2_[C-2G]_H5.3_A5.1_F5.1_T5.2_[A12C] (ssRNA)
RNA: B1 RNA with A28G, C29U, G40U
B8: Id_ii_S2_P5E.4_K5.3_C5.2_[C-2A]_[T-1A]_H5.3_A5.1_F5.1_T5.2_[A12C] (ssRNA)
RNA: B1 RNA with C29A, G40U
B9: Id_ii_S2_P5E.4_K5.3_C5.2_[C-2T]_H5.3_A5.1_F5.1_T5.2_[T11A]_[A12C] (ssRNA)
RNA: B1 RNA with A28U, C29U, G40A
B10: Id_ii_S2_P5E.4_K5.3_C5.2_[C-2G]_H5.3_A5.1_F5.1_T5.2_[T11A] (ssRNA)
RNA: B1 RNA with A28G, C29U, G40A, C41A
B11: Id_ii_S2_P5E.4_K5.3_C5.2_[C-2T]_H5.3_A5.1_F5.1_T5.2_[A12C] (ssRNA)
RNA: B1 RNA with A28U, C29U, G40U
B12: Id_ii_S2_P5E.4_K5.3_C5.2_[C-2G]_[T-1C]_H5.3_A5.1_F5.1_T5.2_[A12T] (ssRNA)
RNA: B1 RNA with A28G, G40U, C41U
B13: Id_ii_S2_P5E.4_K5.3_C5.2_[C-2T]_[T-1A]_H5.3_A5.1_F5.1_T5.2_[T11A]_[A12C] (ssRNA)
RNA: B1 RNA with A28U, C29A, G40A
B14: Id_ii_S2_P5E.4_K5.3_C5.2_[C-2A]_[T-1A]_H5.3_A5.1_F5.1_T5.2_[T11A] (ssRNA)
RNA: B1 RNA with C29A, G40A, C41A
B15: Id_ii_S2_P5E.4_K5.3_C5.2_[C-2A]_H5.3_A5.1_F5.1_T5.2_[T11C]_[A12C] (ssRNA)
RNA: B1 RNA with C29U, G40C
B16: Id_ii_S2_P5E.4_K5.3_C5.2_[C-2T]_H5.3_A5.1_F5.1_T5.2_[T11C]_[A12C] (ssRNA)
RNA: B1 RNA with A28U, C29U, G40C
B17: Id_ii_S2_P5E.4_K5.3_C5.2_[C-2A]_H5.3_A5.1_F5.1_T5.2_[T11C]_[A12T] (ssRNA)
RNA: B1 RNA with C29U, G40C, C41U
B18: Id_ii_S2_P5E.4_K5.3_C5.2_[C-2A]_[T-1A]_H5.3_A5.1_F5.1_T5.2_[T11C]_[A12C] (ssRNA)
RNA: B1 RNA with C29A, G40C
B19: Id_ii_S2_P5E.4_K5.3_C5.2_[C-2G]_H5.3_A5.1_F5.1_T5.2 (ssRNA)
RNA: B1 RNA with A28G, C29U, G40U, C41A
B20: Id_ii_S2_P5E.4_K5.3_C5.2_[C-2T]_[T-1A]_H5.3_A5.1_F5.1_T5.2 (ssRNA)
RNA: B1 RNA with A28U, C29A, G40U, C41A
B21: Id_ii_S2_P5E.4_K5.3_C5.2_[C-2A]_[T-1C]_H5.3_A5.1_F5.1_T5.2_[A12C] (ssRNA)
RNA: B1 RNA with G40U
B22: Id_ii_S2_P5E.4_K5.3_C5.2_[C-2A]_[T-1A]_H5.3_A5.1_F5.1_T5.2_[A12T] (ssRNA)
RNA: B1 RNA with C29A, G40U, C41U
B23: Id_ii_S2_P5E.4_K5.3_C5.2_[C-2G]_H5.3_A5.1_F5.1_T5.2_[T11A]_[A12C] (ssRNA)
RNA: B1 RNA with A28G, C29U, G40A
B24: Id_ii_S2_P5E.4_K5.3_C5.2_[C-2T]_[T-1C]_H5.3_A5.1_F5.1_T5.2_[T11C]_[A12C] (ssRNA)
RNA: B1 RNA with A28U, G40C
B25: Id_ii_S2_P5E.4_K5.3_C5.2_[C-2A]_[T-1C]_H5.3_A5.1_F5.1_T5.2_[T11A] (ssRNA)
RNA: B1 RNA with G40A, C41A
B26: Id_ii_S2_P5E.4_K5.3_C5.2_[C-2T]_[T-1A]_H5.3_A5.1_F5.1_T5.2_[T11A]_[A12T] (ssRNA)
RNA: B1 RNA with A28U, C29A, G40A, C41U
B27: Id_ii_S2_P5E.4_K5.3_C5.2_[C-2T]_H5.3_A5.1_F5.1_T5.2_[T11A]_[A12T] (ssRNA)
RNA: B1 RNA with A28U, C29U, G40A, C41U
B28: Id_ii_S2_P5E.4_K5.3_C5.2_[C-2T]_[T-1A]_H5.3_A5.1_F5.1_T5.2_[A12C] (ssRNA)
RNA: B1 RNA with A28U, C29A, G40U

Target: T1, PUF4 RNA-binding domain
Experiment: Mg; RNA-MaP; 20 mM Na-HEPES pH 7.4, 30 mM KOAc, 0.75 mM MgCl2, 0.1% Tween-20, 5% glycerol, 0.1 mg/mL BSA, 2 mM DTT; 25 C; 0.0125-409.6 nM protein
Conditions: tags: N-His6-TEV cleaved; C-SNAP kept, Cy3B-labelled; label: tethered on chip by stalled RNA polymerase

Binder	Kd
B1	> 2300 nM
B2	> 2300 nM
B3	> 2300 nM
B4	11 nM
B5	> 2300 nM
B6	> 2300 nM
B7	1.12 nM
B8	> 2300 nM
B9	> 2300 nM
B10	1.43 nM
B11	1890 nM
B12	341 nM
B13	> 2300 nM
B14	> 2300 nM
B15	110 nM
B16	1930 nM
B17	117 nM
B18	> 2300 nM
B19	2.21 nM
B20	790 nM
B21	> 2300 nM
B22	> 2300 nM
B23	2.19 nM
B24	> 2300 nM
B25	> 2300 nM
B26	> 2300 nM
B27	> 2300 nM
B28	> 2300 nM
UCUCUUUGUAUCAUGAUCUCUU (ssRNA) [Ib_S1_P5E.1_K5.1_C5.1_H5.1_A5.1_[T6C]_F5.1_[T9G]_T5.1]	24.9 nM
